Test results: publication doi:10.1101/2024.03.09.584257

Biological target: ICP1 Cas1 (Vibrio cholerae phage ICP1_2011_A)

Substance ICP1 Cas1 (natural protein) has a stoichiometry N of 2.
